Measurements published in the supplement of paper PMC12042874.
± gives the uncertainty stated by the source.

Assay: amyloid nucleation score (Sup35N fusion, yeast selection) (log enrichment); library NNK1; higher = more nucleation; inactive = no reads after selection
In short: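 DiMSum was used to calculate nucleation scores as log enrichment of output over input reads, centred on the mode score of non-aggregating sequences. Sequences with fewer than 100 input reads were not scored. Input and output came from Illumina sequencing of plasmid inserts in psi-negative yeast expressing peptides of 20 random codons fused to Sup35N, induced 24 hours with 100 μM copper sulfate and then grown 7 days at 30°C on medium lacking adenine and uracil.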

| Substance | amyloid nucleation score |
| --- | --- |
| SRLSLT | 0.179 ± 0.82 |
| SRLVRSSLHMGAKTRVIQL | 0.881 ± 0.26 |
| SRMWR | -0.068 ± 0.45 |
| SRNAVVVVVQTYMDMTSCNT | 6.37 ± 0.068 |
| SRRSYSYFGIIICVNCSDTS | 8.583 ± 0.057 |
| SRSSCQVMVSRDAADVLHRI | 0.423 ± 0.58 |
| SRTFVGGLGLVYEIFIVMAV | -0.301 ± 0.59 |
| SRVFRLVFKPSYGSLTRRCR | -0.904 ± 1.9 |
| SRWFCYRLVFTFVGPTRHLD | 0.172 ± 0.77 |
| SRWPTHGSQIFVLTESVLTN | 0.062 ± 0.55 |
| SRWTFSNRAFYRTGAWA | 0.235 ± 0.68 |
| SRYELSIVDCLRHTTSFFVR | 0.034 ± 0.81 |
| SRYGWGTRSESRQLTSLSCT | -0.304 ± 1.3 |
| SRYIGSSPARMMASWTFQGL | 4.01 ± 0.078 |
| SRYSLTCRVLTWLPDNLVRR | 0.07 ± 0.42 |
| SSCSPHLLFGLASVGV | 0.39 ± 0.53 |
| SSCVIRKCKHERQRWMS | inactive |
| SSDEFVDGSLIWYHLFSPCR | -0.744 ± 0.41 |
| SSDGVSMLC | 0.33 ± 0.47 |
| SSESICFNIRGQDINRT | -0.446 ± 0.37 |
| SSFIPF | 0.1 ± 0.32 |
| SSGYSGSCVNINWC | 6.412 ± 0.045 |
| SSKLSYWYKMAIESSFNVLH | -0.083 ± 0.41 |
| SSKVERG | -0.139 ± 1.3 |
| SSLNLMPQVGEGRHTGV | -0.648 ± 0.46 |

| Substance | amyloid nucleation score |
| --- | --- |
| SSPIGSSSFTMGCGWREQ | 0.599 ± 0.88 |
| SSPSMSINVYRLNKS | inactive |
| SSRLKL | 1 ± 0.25 |
| SSRLVSFFGHSNTVLRMFNW | inactive |
| SSSADLAATARLFAGWEVLY | 0.045 ± 0.74 |
| SSSFRHAMRPSSISQRISPC | 0.354 ± 0.54 |
| SSSKLLR | -0.4 ± 0.7 |
| SSSKYMIFFYRAIHHHKGME | 0.31 ± 0.33 |
| SSTLLRMIEVRNGWEKGVWE | 0.083 ± 0.2 |
| SSVYVRLVMGF | 1.77 ± 0.61 |
| SSVYVSIQLGGTLPRWGGVR | 1.19 ± 0.3 |
| SSYSYSDLRTRYIRITSQLD | 0.203 ± 0.47 |
| STCHRSSSTCWKGYVRGLVV | 0.004 ± 0.18 |
| STFWENIIVFFHGPYHDMHT | -0.647 ± 0.69 |
| STKADTSRALVLCRGDC | -0.18 ± 0.59 |
| STLLMTSDSSALMLLYTSIL | -0.336 ± 0.46 |
| STLYLLHGRNSHTGRSFSRH | -1.01 ± 0.66 |
| STNVGRILMCVQLSLWKLN | 0.227 ± 0.29 |
| STRFPRLDALNGKKFYRKNT | 0.157 ± 0.66 |
| STRGHNMTEINVWMVHNILT | -0.116 ± 1.4 |
| SVAHMVDISFVVHPVMSTGN | -1.1 ± 0.82 |
| SVCKCKLNERIEKWNYRSIR | 0.227 ± 0.43 |
| SVFISNERL | inactive |
| SVGGWLSYRSDV | -0.901 ± 0.89 |
| SVGSLRRFSDFIYWNVVLNM | -0.3 ± 0.58 |

| Substance | amyloid nucleation score |
| --- | --- |
| SVGTDY | -0.465 ± 1.6 |
| SVHKWSSKTAMSLRTTYK | 0.284 ± 0.69 |
| SVISNVCSKCTVTRRDGP | 3.17 ± 0.11 |
| SVIYHRCLFLI | 6.906 ± 0.048 |
| SVKGRGRGILWMLAVSECVG | -0.762 ± 0.62 |
| SVKNYLCLMTTPFVFVLEM | 5.417 ± 0.049 |
| SVLCTLALSTCLGCLIVS | inactive |
| SVMGVSWFLFLDYGDSINFR | 0.521 ± 0.36 |
| SVMNGVGPQWLVLTYLPVSR | -0.38 ± 1.5 |
| SVNFRYPWCFTVGGMTVLLQ | 0.007 ± 0.73 |
| SVNRCFSAFLSQAIT | 0.042 ± 0.53 |
| SVRYWAYRFVHF | inactive |
| SVVRNEIYRYYKCSKTVSIW | -0.513 ± 0.33 |
| SVWGIILYYWKY | 0.388 ± 0.43 |
| SVYPLF | -0.268 ± 0.28 |
| SVYVLSRGAVSMSVWHR | 3.64 ± 0.15 |
| SWATWLDMNG | 0.964 ± 0.76 |
| SWCHFVCLYPKHVFSVVSST | 0.562 ± 1.2 |
| SWCRGLEVQWLRCIFRM | 0.274 ± 0.69 |
| SWFTVRCDDC | inactive |
| SWFYYAKC | 0.05 ± 0.76 |
| SWIEKDHFQVGARYRMSS | -0.376 ± 0.6 |
| SWLCHRTSVLVPVVSISRKL | 1.15 ± 0.7 |
| SWNNNAFAGMIPSNVVCCTY | 1.97 ± 0.26 |
| SWRLMIRYVDTPNSWNFSTM | -0.183 ± 0.67 |

| Substance | amyloid nucleation score |
| --- | --- |
| SWRNVLKSGASRNKVDRSSL | -0.22 ± 1.1 |
| SWSEVGWTHCMSWASHI | -1.14 ± 2.4 |
| SWVGRAVVEYSARARASTES | -0.327 ± 0.33 |
| SWVSAVIHRYGV | 1.31 ± 0.15 |
| SYAGYGTNK | -0.242 ± 0.62 |
| SYFKCMIILSRMLLVVLEI | -0.272 ± 0.65 |
| SYHLLMHMGIGQTLYKTRYD | 1.98 ± 0.21 |
| SYIDHYITKSDAVWRVSIEQ | -0.176 ± 0.35 |
| SYNTIIGSSCN | 0.701 ± 0.69 |
| SYPCTVHTKGWLVFTCGVCI | 0.32 ± 0.73 |
| SYQVRDVIKSF | 4.52 ± 0.1 |
| SYRHSSTSCKFGYVYRFTCL | 1.19 ± 0.41 |
| SYRRAVHGVVVQQKRDEFVL | -0.026 ± 0.36 |
| SYSDICEVNLDTHKFVLGVR | -0.992 ± 0.49 |
| SYTYCLVVG | 0.157 ± 1.4 |
| SYVMGLVYLIYTCKYWFFSE | -0.827 ± 1.7 |
| SYVRLFERFWVNFRSHMGNC | 0.014 ± 0.52 |
| TAASTHLVSACTLTKRCERL | -0.673 ± 0.92 |
| TAFFCRFPSCGGYIAYRSYV | -1 ± 1.2 |
| TAFLGTSGG | 0.448 ± 0.42 |
| TASICSYR | -0.289 ± 0.49 |
| TAVDLWYGGVGGLALNGVVS | 0.594 ± 0.62 |
| TAYAFNDCEFEPVWSRIVGN | -0.412 ± 0.48 |
| TCFEMLPLK | 0.454 ± 0.5 |
| TCFSSILKDMVWRNRRRWGY | 0.216 ± 0.84 |

| Substance | amyloid nucleation score |
| --- | --- |
| TCIDVQQYDCLVFFYFLHGF | inactive |
| TCISTCYD | -0.183 ± 0.9 |
| TCLCD | 1.52 ± 0.46 |
| TCLRACVHLVNYGVDMFSDK | 1.83 ± 0.32 |
| TCPWWTVIVFTSESMP | inactive |
| TCRNFRHG | -0.542 ± 0.57 |
| TDCHS | inactive |
| TDDATNVRKGAHS | 0.602 ± 0.6 |
| TDFMVGCVNMRRSESVWYC | 0.767 ± 0.39 |
| TDGIAVSFTNHDVWMVDAFV | 0.241 ± 1.4 |
| TDPRNNACVFYVCYYTSCWD | 0.923 ± 0.66 |
| TEDVKAVKVLGLTLGVQVIT | -0.657 ± 0.38 |
| TEGRKSSNVQ | 0.577 ± 0.47 |
| TESVRKWFKLRLWESWYNSN | 0.145 ± 0.51 |
| TFAVLRNSGFM | 0.529 ± 0.84 |
| TFFVVCKSTLILYEI | -0.186 ± 0.52 |
| TFGLRFVYMAHLVVWCADHR | 0.036 ± 0.33 |
| TFISSMPNQMIFPKGGSRGC | inactive |
| TFKKWMRIVYNLISKLKSRH | 2.98 ± 0.081 |
| TFKSTLFSYFPGPQEHARGR | 1.93 ± 0.25 |
| TFLMCRNACYK | 4.35 ± 0.15 |
| TFMHARDYDMNS | -0.666 ± 0.86 |
| TFSFARLRDLKWVMPRVRRS | 0.27 ± 0.44 |
| TFSTGFGGIISLACVRRQYL | 0.049 ± 0.88 |
| TFVDGGSFSENVVVMIRFYH | 4.99 ± 0.064 |

| Substance | amyloid nucleation score |
| --- | --- |
| TFYEMPFIFDLCYRWLTVTG | 1.34 ± 0.65 |
| TFYKYVGSTISPSFGFRYVG | -0.052 ± 0.38 |
| TGAYSECFALLIMG | -1.09 ± 1 |
| TGCRHFLQVCSVHRRRGSVC | 0.022 ± 0.78 |
| TGGFIFHGCAFYRMFSWLVD | 0.849 ± 1.1 |
| TGLELGVPKIRCMSFHVLPW | -0.394 ± 0.92 |
| TGLYSYIGFSDGYCVYEMIT | -0.122 ± 1.6 |
| TGNGTCCESFSRSDKENSDA | inactive |
| TGSHLPRDGSVSKCVFRY | 0.248 ± 0.53 |
| TGSQLWHIIFRC | 0.214 ± 0.24 |
| TGYGSDNCI | inactive |
| TGYLIYSSWC | 0.146 ± 0.4 |
| TGYWKSFSSAF | 0.072 ± 0.93 |
| THAMCRYQSHGKLLSSGADS | 0.781 ± 0.65 |
| THDLRLMIGHDCDTVNGYSR | -0.725 ± 0.43 |
| THFTTYYYWSQWGLWLSFCQ | 0.596 ± 0.31 |
| THGPFRCLSNCDVFTPNPEE | 1.03 ± 0.62 |
| THSRFKVCPVSMLCNAPQQR | 0.626 ± 1.2 |
| TICNEINQFKAK | 0.35 ± 0.59 |
| TIDCMLWGYFRNDSTKCTAA | 0.205 ± 0.47 |
| TIDVCDSHLMAYTVDWNCVW | 0.505 ± 0.62 |
| TIFIAMDFNRVGKLFYRN | 5.368 ± 0.05 |
| TIIPLHIRAIYA | 0.956 ± 0.28 |
| TIMFLVITIPRFHNDLMVLS | -0.79 ± 0.37 |
| TIQPRRWYVYSKQFLWNLCC | 1.35 ± 0.14 |

| Substance | amyloid nucleation score |
| --- | --- |
| TIRVLDRTFVS | inactive |
| TIRVQHYCVDRGQESVLMGS | -0.524 ± 0.51 |
| TISGNVSCQKYSRLCVQGLS | 0.449 ± 0.25 |
| TISLDRRDAVNYLVAHLCSV | -0.146 ± 1.4 |
| TISYLS | 0.198 ± 0.39 |
| TIVYATGMNMYTDAC | -0.203 ± 0.34 |
| TIWLDCLMDKTYVFDCLFSF | 0.587 ± 1.1 |
| TKDGIT | 0.305 ± 0.97 |
| TKIKYGDKSPKHYYMAS | -0.174 ± 0.6 |
| TKLVLWLVA | -0.429 ± 0.71 |
| TKSMFGTCNMFKTKVLN | -0.101 ± 0.49 |
| TKSRRSEGCEMPCHCNEVFV | 0.497 ± 0.72 |
| TKSTLL | -0.296 ± 0.64 |
| TLCCLT | inactive |
| TLCCVWSNSFLRVTHDVYKA | 8.518 ± 0.057 |
| TLDADYPCNEQDTVWL | 1.01 ± 1.1 |
| TLFCSGSNAKAGCSEHYYFC | 3.04 ± 0.16 |
| TLFLVWILGVTKSRITGTPS | 0.325 ± 0.73 |
| TLIGSDLVFGSRDPGWGCTI | -0.406 ± 0.45 |
| TLKFGSYQAVRLSHSGKPDD | 2.55 ± 0.1 |
| TLLRLFEKPLICYVIGRSLI | -1.09 ± 0.61 |
| TLNHRSLCFSSVDILWVWII | -0.533 ± 0.9 |
